Measurements taken from the nanobody polyreactivity screen of Harvey et al. (2022).

Assay: yeast display, Sf9 membrane polyspecificity reagent, FACS + sequencing; frameworks hold sequencing errors
Outline: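 After 36–48 hours of galactose induction, yeast (Saccharomyces cerevisiae BJ5465) displaying a synthetic nanobody library were stained at 4 °C for 1 hour with 10% biotinylated, detergent-solubilized Sf9 membrane reagent. Streptavidin microbeads enriched the stained cells before FACS sorting into low and high (top ~1%) gates on anti-HA and streptavidin fluorescence. Each clone's polyreactivity label reflects its gate of origin.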

Row | Sequence | polyreactivity (PSR sort gate)
1 | QVQLVESGGGIVQPGGSLRLSCAASGSIFGYNAIGWYRQAPGKERELVAAISTSSGSTYYADSVKGRFTISRDNAKNTVFLQMNSLKPEDTAVYYCAARDRPFGRYDYWGQATQVTVSS | low polyreactivity
2 | QVQLVESGGGKVQAGGSLRLSCAASGFILSRNAMGWYRQAPGKERELVAAISRSGTRTYYADSVKGRFTISRDNEQNTVYLQMNSLKPEDTAVYYCARVSKRTWTGYYYWGQGTQVTVSS | high polyreactivity
3 | QVQLVESGGGKVQAGGSLRLSCAASGRIFSVYTMGWYSQAPGKERELVAAISSGASTNYADSVKGRFTISRDNAKNTVYLQMNSLKPEDTAVEYCNAQWYLRLGASKTWVDVDYWGQGTQVTVSS | low polyreactivity
4 | QVQLVESGGGKVQAGGSLRLSCAPSGSIFFSYAMGWYRQAPGKERELVAAISGSGTSTYYADSVKGRFTISRDNAKNTVYLQMNSLKPEDTAVYYCPTDGGAAWGRYYWDYGYWGQGTQVTVSS | low polyreactivity
5 | QVQLVESGGGKVQAGGSLSLSCAASGSTFVVNAMGWYRQAPGKERELVAAIDGSDGSTYYADSEKGRFTISRDNAKNTVYLQMNSLKPEDTAVYYCAAEVLGRPDVENDYWGQGTKVTVSS | low polyreactivity
6 | QVQLVESGGGLAQAGGSLRLSCAASGNILRINGMGWYRQAPGKERELVASITRSGSTYYADSVKGRFTISRDNAKNTVYLQMNSLKPEDTAVYYCAADSRRYGVRFDYWGQGTQVTVSS | low polyreactivity
7 | QVQLVESGGGLAQAGGSLRLSCAASGSTFNSNAMGWSRQAPGKERELVAAISRSGGRTYYADSVKGRFTISRDIAKNTVYLQMNSLKPEDTAVYYCAAGCQYISRRGYDYWGQGTQVTVSS | high polyreactivity
8 | QVQLVESGGGLDLAGGSLRLSCAASGSTFWRYAMGWYCQAPGKERELVAAISYTGTSTYSADSVKGRFTISRDNAKNTVYLQMNSLKPEDTAVYYCAAVFVGLVTGYDYSWGQGTQVNVSS | low polyreactivity
9 | QVQLVESGGGLDQAAGSLRLSCAASGSIFDAYMRWYIQAPGKERELVAGITRSGGSTYYADSVKGRFTISRDNAKIKVYLQMNSLKPEDTAVDFCAADYSSDGDYWGLGTQVTVSS | low polyreactivity
10 | QVQLVESGGGLDQAGGCLRLSCAASGRIFKYNAMGWYRQAPGTERELVAAISWNGDSTYYADSVKGRFTISRDIAKYTVYLQMNRLKPEDTAVYYCAVTGDYDMEYWGQGTQVTVSS | low polyreactivity
11 | QVQLVESGGGLDQAGGRLRLSCAASGSIFSIYAMGRYRQAPGKERELVAAISSGGSTYADSVKGRFTISRDNAKNTVYLQMNSLKPEDTAVYYCAADRRGYRGYDYWGQGTQVTVSS | low polyreactivity
12 | QVQLVESGGGLDQAGGRLRLSCPASGRIFQANAMGRYRQAPGKERELVAAITNRGGSTYADSVKGRFTISRDNAKNTVYLQMNSLKPEDTAVYYCAADVSRYVQRDNYWGQGTQVTVSS | low polyreactivity
13 | QVQLVESGGGLDQAGGRLRLSSAASGTTFAVNAMGWYRQAPGKERELVAAITSGGSTKYADSVKGRFTISRDNAKYSVYFQMNSLKREDSAVYYIPDSKLWALGWKFYYWGQGTQVTVSS | low polyreactivity
14 | QVQLVESGGGLDQAGGSHRLSCAASGFTFSGYAMGWYRQAPGTESELVAAMTRRGGSTYYADSVKGRFTISRDNAKNTVYLHLNSLKPEDTAVYYCAADSGYPWELDYWGQGTQVTVSS | low polyreactivity
15 | QVQLVESGGGLDQAGGSHRLSCAASGRTFPGNAMGWYRQAPGKERELVAAISWSGSRTYYADSLKGRFTISRDNAKNTVYLHMTRMKPEDTAVYYCNVVVKGAWEYYPYDYWGQGTEVTVSS | high polyreactivity
16 | QVQLVESGGGLDQAGGSLRISCAASGSTLLGNAMGWYRQAPGKERELVAAISTSGDSTNYADSVKGRFTISRDNAKNTVYLQMNSLKPEDTAVYYCNAGGYLISDVDRVGYWGQGTQVTVSS | low polyreactivity
17 | QVQLVESGGGLDQAGGSLRLICAASGIIFASNAMGWYRQAPGKERELVATITGSVAGTYYADSVKGRFTISRDNAKPTVYLQMNSLKPEDTAVYDCAAKRGWNVAGYDYWGQRTQVTVSS | low polyreactivity
18 | QVQLVESGGGLDQAGGSLRLICAASGLTFPYYARGWSIQAPGKEMEVVAGITDDGGDTYYADSVKGRLTISRDYAKNTVYLQMNSLKPEDTAVYFCAADGWFQGWFGYGYWGQGTQVTVSS | high polyreactivity
19 | QVQLVESGGGLDQAGGSLRLICAASGRTYDTNAMGWYRQAPGKEREFVAAINTGGNTYYADSVKGRFTISRDNAKNTVYLQMNSLIPEDTAVYYSAAYYYYFYHKVIWYELDYWGQGTQVTLSS | low polyreactivity
20 | QVQLVESGGGLDQAGGSLRLSCAASGFIFIQNDMGWYRQAPGKEREFVASISKDGGRTYYADSVKGRFTISRDNAKNTVYLQMNSLKPEDTAVVYCNTYPRGNWGNFVEQDYDYWGHGTQVTVSS | low polyreactivity
21 | QVQLVESGGGLDQAGGSLRLSCAASGFIFITYEMGWYRQAPGKQMELVAVITSGGTTNYADSVKGRFTISRDNAKNTVYLQMNSLKPEDTAVYYCAAEDYVIGDSGYDYWGQGTQVTVSS | low polyreactivity
22 | QVQLVESGGGLDQAGGSLRLSCAASGFIFNKYALGRSRQAPGTEREFVATIRRDGSTNYADSVKGRFTISRDNAKNTVYLQMNSLKPEDTAVYSCAKRPWYHADWWDDHWGQGTQVTVSS | high polyreactivity

Row | Sequence | polyreactivity (PSR sort gate)
23 | QVQLVESGGGLDQAGGSLRLSCAASGFIFRAYAMGLYRQAPGKERELVAAISWGGGSTYYADSVKGRFTISRDNAKNTVYLQMNSLKPEDTAVYYCAAEYEAYAYEYWGQGTQVTVSS | high polyreactivity
24 | QVQLVESGGGLDQAGGSLRLSCAASGFIFWRNTMGWYRPAPGKERELVAVITRGGSTYYADSVKGRFTISRDTAKNTVYLQMNSLKPEDTAVYNSAARNDYFKTFSGYDYWGQGTQVTVSS | low polyreactivity
25 | QVQLVESGGGLDQAGGSLRLSCAASGFIFYDYDMGWYRQAPGKERELVAAISDGGSTNYADSVKGRFTISRDNAKNTVYFQRNSLKPEDTAVYYCAKDGFVYYDYFQYIEYDYWGQGTQVTVSS | low polyreactivity
26 | QVQLVESGGGLDQAGGSLRLSCAASGFTFWRYAMGWYRQAPGKERELVAAISWSGGSTYYADSVKGRFTISRDNAKNTVYLQMNSLKPEDTAVYYCTAQYGSRSYRYGYWGQGTQVTVSS | high polyreactivity
27 | QVQLVESGGGLDQAGGSLRLSCAASGFTFYPNAMGWYRQAPGKERELVAAINSGGSTYYADSVKGRFTISRDNAKNTVYLQMNSLKPEDTAVYYCAAYGKRGAVAFYYWGQGTQVTVSS | high polyreactivity
28 | QVQLVESGGGLDQAGGSLRLSCAASGFTFYPYAMGWYRQAPGKERELVASITSAGGTNYADSVKGRFTISRDNAKNTVYVQLNSLKPEDTAVYYCAAKYRSRGPDYYFNSDYWGQGTQVTVSS | low polyreactivity
29 | QVQLVESGGGLDQAGGSLRLSCAASGFTLDYYAMGWYRQAPGKERELVAAISWSGGRTYYADSVKGRFTISRDNAKNTVYLQMNSLKPEDTAVYYCNASPYGRKYGILADGDYWGQGTQVTVSS | high polyreactivity
30 | QVQLVESGGGLDQAGGSLRLSCAASGFTSYLYTMGWYRQAPGKERELVAAISNSGGNTYYADSLKGRFTISRDIAKKTVYLQMNSLKPEDTAVYYCAAVRRISRYDYWGQGTQVTVSS | high polyreactivity
31 | QVQLVESGGGLDQAGGSLRLSCAASGIIFWYYAMGWYRQAPGKEMELVAAINWNGDSTHYADSVKGRFTISRDNAKNTVYLQMNILKPEDTAVYYCAARTYTLRGVYFSGYNYWGQATQVTVSS | low polyreactivity
32 | QVQLVESGGGLDQAGGSLRLSCAASGISFIIYVMGWYRQAPGKERELVAAISSTGSTYYADSVKGRFTISRDNAKNTVYLQMNSQKPEDTAVYYCAKRKFTARQRYNYWGQGTQVTVSS | high polyreactivity
33 | QVQLVESGGGLDQAGGSLRLSCAASGITFLDNDMGWYRQAPGKERELVAAINSGVSTYYADSVKGRFTISLDNAKNTVYLQMNSLKPEDTAVYYCAADRPDVAGDYWGQGTQVTVSS | low polyreactivity
34 | QVQLVESGGGLDQAGGSLRLSCAASGITFPGYAMGWYRQAPGKERELVAAIDWSGDGTYYADSVKGRFTISRDNAKNTVYLQMNSLKPEDTAVYYCAKDNYPNHSTVLAVIYDYWGQGTQVTVSS | low polyreactivity
35 | QVQLVESGGGLDQAGGSLRLSCAASGITFYDYAMGWYRQAPGKEREFVASITSSGGSTYYADSVKGRFTISRDNAKTTVYLQMNSLKPQDPAVYYCAARGYNPYGRKVGYWGQGTQVTVSS | high polyreactivity
36 | QVQLVESGGGLDQAGGSLRLSCAASGLIFIQNAMGWYRQAPGKEREFVAAISVSGRTYYADSVKGRFTISRDNAKNTVYLQMNSLKPEDTAVYYCAARSRSWRQRYGDFDYWGQGTQVTVSS | low polyreactivity
37 | QVQLVESGGGLDQAGGSLRLSCAASGLIFSQYTMGWYRQAPGKERELVASITWRGGSTYADSVKGRFTISRDNAKNTVYLQMNSLKPEDTAVYYCAADYKPSYYLRQSYGYWGQGTQVTVSS | low polyreactivity
38 | QVQLVESGGGLDQAGGSLRLSCAASGLTFWYYAMGWYRQAPGKERELVVAISWSGGRTSYADSVKGRFTISRDNAKNTVYLQMNSLKPEDTAVYYCAADKDFRTGEYEYDYWGQGTQVTVSS | high polyreactivity
39 | QVQLVESGGGLDQAGGSLRLSCAASGLTFYSYAMGWYRQAPGKERELVAAISSSGGNTYYADSVKGRFTISRDNAKNTVYLQMNSLKPEDTAVYYCAARYTAYIQYGMGYWGQGTQVTVSS | high polyreactivity
40 | QVQLVESGGGLDQAGGSLRLSCAASGNIFYRYAMGWYRQAPWKERELVAAISGNSGNTYYADSVKGRFTISRDNAKNTVYLQMNSLKPEDTAVYYCAAERRAFGHYSWGQGTQVTVSS | high polyreactivity
41 | QVQLVESGGGLDQAGGSLRLSCAASGRIFDSNAMGWYRQAPGKERELVAAISYDGGSTYYADSVKGRFTISRDNAKNTVYLQMNSLKPEDTAVYYCAGDDGWYYYYGYDYWGQGTQVTVSS | low polyreactivity
42 | QVQLVESGGGLDQAGGSLRLSCAASGRIFGYYVMGWYRQAPGKEREFVAAISRSGGSTYYADSVKGRFTISRDNAKTTVYLQMNSLKPEDTAVYYCAKRVSTYGFSGYDYWGQGTQVTVSS | high polyreactivity
43 | QVQLVESGGGLDQAGGSLRLSCAASGRIFLVYVMGWYRQAPGKERELVAAISASDGSTYYADSVKGRFTISRDNANNTVYLQMNSLKPEDTAVDYCAEWGYSLDSNSYRELNYWGQGTQVNVSS | low polyreactivity
